System: Escherichia coli TOP10
Experiment: shrunken log2 fold change of peptide-encoding DNA abundance (4.5 h post-induction vs induction); higher = less antimicrobial activity (less host growth inhibition)
Conditions: time post-induction: 4.5 h; library: site-saturation at positions 5, 18, 19, 20
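Further: peptides expressed intracellularly from a pBAD plasmid library in pooled LB shake-flask culture, induced with 0.3% L-arabinose, DNA abundance read by NGS, three biological replicates, DESeq2 with apeglm shrinkage.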

Sequence | shrunken log2 fold change
RRIRYRPPRLPRPRPRPDWSPRP | -0.522
RRIRVRPPRLPRPRPRPTPFPRP | 0.279
RRIRHRPPRLPRPRPRPFNAPRP | -0.495
RRIRCRPPRLPRPRPRPVRTPRP | 0.39
RRIRQRPPRLPRPRPRPMRRPRP | 0.225
RRIRWRPPRLPRPRPRPKSCPRP | 0.178
RRIRHRPPRLPRPRPRPLYYPRP | -0.611
RRIRERPPRLPRPRPRPKYIPRP | -0.0434
RRIRVRPPRLPRPRPRPPSNPRP | -0.034
RRIRERPPRLPRPRPRPGIYPRP | -0.91
RRIRRRPPRLPRPRPRPKWMPRP | 0.338
RRIRHRPPRLPRPRPRPFYPPRP | -0.623
RRIRIRPPRLPRPRPRPPDWPRP | 0.286
RRIRNRPPRLPRPRPRPWFDPRP | -0.876
RRIRGRPPRLPRPRPRPRGWPRP | 1.68
RRIRLRPPRLPRPRPRPTDQPRP | 0.0347
RRIRIRPPRLPRPRPRPLMVPRP | -0.942
RRIRVRPPRLPRPRPRPIHDPRP | -0.0895
RRIRMRPPRLPRPRPRPPTRPRP | 1.25
RRIRMRPPRLPRPRPRPGDPPRP | 1.09
RRIRWRPPRLPRPRPRPCFHPRP | -0.247
RRIRERPPRLPRPRPRPMIHPRP | -0.65
RRIRVRPPRLPRPRPRPFHWPRP | -0.0122
RRIRSRPPRLPRPRPRPLREPRP | 0.369
RRIRGRPPRLPRPRPRPIVCPRP | 0.356

Sequence | shrunken log2 fold change
RRIRYRPPRLPRPRPRPVVGPRP | -0.172
RRIRSRPPRLPRPRPRPPNRPRP | 0.238
RRIRYRPPRLPRPRPRPFHFPRP | -0.19
RRIRYRPPRLPRPRPRPLLDPRP | -0.296
RRIRPRPPRLPRPRPRPMVGPRP | 0.265
RRIRSRPPRLPRPRPRPKNEPRP | -0.011
RRIRKRPPRLPRPRPRPLTAPRP | 0.403
RRIRMRPPRLPRPRPRPSNRPRP | -0.0397
RRIRERPPRLPRPRPRPQEKPRP | -0.015
RRIRGRPPRLPRPRPRPQSPPRP | 0.225
RRIRIRPPRLPRPRPRPLYAPRP | -0.651
RRIRCRPPRLPRPRPRPFAMPRP | -0.495
RRIRHRPPRLPRPRPRPEMNPRP | -0.0935
RRIRIRPPRLPRPRPRPWGAPRP | 0.0191
RRIRWRPPRLPRPRPRPGMVPRP | 0.628
RRIRRRPPRLPRPRPRPNDFPRP | -0.189
RRIRTRPPRLPRPRPRPSVFPRP | -0.337
RRIRARPPRLPRPRPRPLLRPRP | 0.103
RRIRARPPRLPRPRPRPRIGPRP | 0.267
RRIRKRPPRLPRPRPRPQNMPRP | -0.521
RRIRYRPPRLPRPRPRPGSNPRP | -0.0401
RRIRLRPPRLPRPRPRPEGHPRP | -0.107
RRIRERPPRLPRPRPRPVTQPRP | -0.282
RRIRQRPPRLPRPRPRPGLYPRP | 0.224
RRIRPRPPRLPRPRPRPVCRPRP | -0.0794

Sequence | shrunken log2 fold change
RRIRKRPPRLPRPRPRPIAGPRP | -0.0506
RRIRDRPPRLPRPRPRPYKGPRP | -0.00133
RRIRVRPPRLPRPRPRPRGQPRP | 0.131
RRIRTRPPRLPRPRPRPHTFPRP | -0.431
RRIRQRPPRLPRPRPRPVCNPRP | -0.0714
RRIRWRPPRLPRPRPRPNSQPRP | -0.0188
RRIRERPPRLPRPRPRPKTNPRP | -0.293
RRIRGRPPRLPRPRPRPNTFPRP | 0.00502
RRIRMRPPRLPRPRPRPQNTPRP | 0.0152
RRIRRRPPRLPRPRPRPGKPPRP | 0.293
RRIRSRPPRLPRPRPRPCDHPRP | -0.138
RRIRMRPPRLPRPRPRPESSPRP | 0.135
RRIRKRPPRLPRPRPRPRELPRP | 0.753
RRIRLRPPRLPRPRPRPDATPRP | 0.398
RRIRMRPPRLPRPRPRPKKKPRP | 1.61
RRIRYRPPRLPRPRPRPVLLPRP | -0.109
RRIRVRPPRLPRPRPRPHIFPRP | -0.547
RRIRCRPPRLPRPRPRPLAGPRP | 0.153
RRIRCRPPRLPRPRPRPERLPRP | 0.0345
RRIRRRPPRLPRPRPRPVCYPRP | 0.103
RRIRTRPPRLPRPRPRPSPFPRP | 0.133
RRIRWRPPRLPRPRPRPNVVPRP | -0.144
RRIRCRPPRLPRPRPRPWHMPRP | -0.119
RRIRHRPPRLPRPRPRPHFIPRP | -0.499
RRIRPRPPRLPRPRPRPPWTPRP | 0.267

Sequence | shrunken log2 fold change
RRIRPRPPRLPRPRPRPDDYPRP | 0.0238
RRIRKRPPRLPRPRPRPSRPPRP | 0.529
RRIRRRPPRLPRPRPRPETAPRP | 0.658
RRIRLRPPRLPRPRPRPIYFPRP | -0.37
RRIRRRPPRLPRPRPRPNMYPRP | -0.16
RRIRARPPRLPRPRPRPDPTPRP | 0.447
RRIRFRPPRLPRPRPRPLEMPRP | -0.357
RRIRVRPPRLPRPRPRPVAYPRP | -0.282
RRIRGRPPRLPRPRPRPLMNPRP | 0.303
RRIRQRPPRLPRPRPRPNSFPRP | 0.151
RRIRGRPPRLPRPRPRPTNHPRP | 0.169
RRIRMRPPRLPRPRPRPYIVPRP | -0.00174
RRIRYRPPRLPRPRPRPLFLPRP | -0.171
RRIRVRPPRLPRPRPRPILNPRP | -0.287
RRIRLRPPRLPRPRPRPTWVPRP | 0.0425
RRIRSRPPRLPRPRPRPQMDPRP | -0.0665
RRIRNRPPRLPRPRPRPCMLPRP | -0.306
RRIRYRPPRLPRPRPRPLHMPRP | -0.116
RRIRMRPPRLPRPRPRPQTQPRP | 2.46
RRIRLRPPRLPRPRPRPRSLPRP | 0.0255
RRIRPRPPRLPRPRPRPNPGPRP | 0.0588
RRIRKRPPRLPRPRPRPVSDPRP | 0.156
RRIRGRPPRLPRPRPRPHQPPRP | 0.18
RRIRRRPPRLPRPRPRPELCPRP | 0.101
RRIRIRPPRLPRPRPRPYERPRP | -0.023

Sequence | shrunken log2 fold change
RRIRYRPPRLPRPRPRPLGWPRP | 0.0401
RRIRGRPPRLPRPRPRPPMGPRP | 0.59
RRIRKRPPRLPRPRPRPMNPPRP | 0.0725
RRIRIRPPRLPRPRPRPWARPRP | 0.0419
RRIRNRPPRLPRPRPRPRQTPRP | 0.112
RRIRYRPPRLPRPRPRPHLYPRP | -1.35
RRIRDRPPRLPRPRPRPGYPPRP | 0.0463
RRIRVRPPRLPRPRPRPQNKPRP | -0.497
RRIRQRPPRLPRPRPRPYYSPRP | -0.39
RRIRVRPPRLPRPRPRPNYAPRP | -0.192
RRIRIRPPRLPRPRPRPGQMPRP | -0.0223
RRIRHRPPRLPRPRPRPPENPRP | 0.116
RRIRMRPPRLPRPRPRPRGEPRP | 0.0602
RRIRLRPPRLPRPRPRPLSFPRP | -0.15
RRIRLRPPRLPRPRPRPGEIPRP | -0.141
RRIRLRPPRLPRPRPRPGDAPRP | -0.127
RRIRGRPPRLPRPRPRPNHAPRP | -0.0738
RRIRQRPPRLPRPRPRPKENPRP | 0.168
RRIRMRPPRLPRPRPRPIKLPRP | 0.0649
RRIRMRPPRLPRPRPRPGHYPRP | -0.196
RRIRERPPRLPRPRPRPDFEPRP | -0.117
RRIRRRPPRLPRPRPRPHHHPRP | -0.161
RRIRKRPPRLPRPRPRPIMNPRP | -0.119
RRIRLRPPRLPRPRPRPIRRPRP | 0.0431
RRIRYRPPRLPRPRPRPQGLPRP | 0.0179

Source: the supplement of paper PMC9112550, “Optimization of the antimicrobial peptide Bac7 by deep mutational scanning” (BMC Biology, 2022)
